Assay results published in article PMC6677171, “Subunit interactions and arrangements in the fission yeast Mis16–Mis18–Mis19 complex” (Life Science Alliance, 2019).

B1: Mis19C: Mis19 truncation including sites A, B, and C, residues 52–112 (protein)
chain: PRVYETELLVLRFREFGVKDNHNHPINLHSLRSKSLIRAQGKKLDLHNRVFLRRNVRAVKM
B2: Mis19: S. pombe Mis18 partner protein (protein)
chain: MDLMPLEKARAIEIAFDNVFHNTKIPDNLQQFDAILKRLERRRFIPTENQKPRVYETELLVLRFREFGVKDNHNHPINLHSLRSKSLIRAQGKKLDLHNRVFLRRNVRAVKM

Legend:
Mis16 = biological target: T1, Mis16 (Schizosaccharomyces pombe, UniProt O94244); assay: Co-expression and affinity pull-down/size-exclusion co-purification of Mis19 deletions with Mis16; type: binding, S. pombe; conditions: co-expressed in insect cells, Strep-Tactin tag on Mis16, gel filtration, SDS–PAGE band
T1 construct: double-Strep-Tactin tag (TEV protease-cleavable) (N, cleaved yes); made in house; host or cells: insect cells (baculovirus made in Sf21, expression in Hi5)
T1 sequence (O94244 whole entry): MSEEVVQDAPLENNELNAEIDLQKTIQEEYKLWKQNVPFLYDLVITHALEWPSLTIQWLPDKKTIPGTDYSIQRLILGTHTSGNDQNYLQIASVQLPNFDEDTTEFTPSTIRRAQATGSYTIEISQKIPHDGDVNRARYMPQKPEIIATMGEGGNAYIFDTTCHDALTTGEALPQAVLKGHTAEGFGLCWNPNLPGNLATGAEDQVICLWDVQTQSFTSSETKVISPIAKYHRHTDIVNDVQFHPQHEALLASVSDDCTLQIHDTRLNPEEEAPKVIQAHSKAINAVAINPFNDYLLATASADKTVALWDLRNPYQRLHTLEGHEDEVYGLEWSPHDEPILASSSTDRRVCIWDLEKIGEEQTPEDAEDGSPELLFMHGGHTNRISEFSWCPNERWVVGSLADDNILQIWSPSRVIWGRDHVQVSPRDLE
Excerpt: Figure 2. Mis16–Mis19 contact regions. (A) Crystal structure of Mis16–Mis19 highlighting the Mis19-binding sites. Three putative binding sites A, B, and C (lighter to darker orange from N terminus to C terminus) are indicated. (B) Schematic of the various deletion constructs of Mis19 are used for binding studies showing the positions of sites A, B, and C. (C) Constructs containing affinity-tagged Mis16 and the Mis19 deletions shown above were co-expressed and purified by affinity pull-down and size-exclusion chromatography. SDS–PAGE gel of peak fractions is shown. Asterisks indicate impurities. (D) Close-up of the A- and C-binding sites. The locations of the kis1-1 (R65) and eic1-1 (F102) t.s. mutant residues are shown.
The C-terminal interaction of Mis19 with Mis16 (site C in our nomenclature) has been previously described ([An et al, 2018]). […] To test the contribution of the individual sites to the Mis16–Mis19 interaction, various truncated Mis19 constructs were designed, for which site A, […], or both A and C are missing (Fig 2B). Full-length Mis16 and Mis19C (includes sites A, B, and C, residues 52–112), construct 1 (includes site B and C, residues 66–112), construct 2 (includes binding site B, residues 66–99), and construct 3 (includes site A and B, residues 52–99) were co-expressed in insect cells, as the isolated Mis19 truncations cannot be expressed and purified. […]

Cnp1–H4 = assay: Pull-down competition with full-length histones Cnp1–H4 (histone octamers); type: binding, S. pombe; conditions: incubation with Cnp1–H4–H2A–H2B octamers (molar excess); 25 mM Tris–HCl, pH 7.5, 500 mM NaCl, 5% glycerol, 1 mM TCEP, at least 1 h at 4°C; SDS–PAGE
Protocol: We were unable to purify these directly as recombinant proteins, probably because of the lack of a suitable chaperone. […] As free Mis19 is extremely unstable, we tested if preformed Mis16–Mis19 dimers (full-length and N-terminally truncated, see sections below) could also interact with H4–Cnp1 by incubating them in a large molar excess of histone octamer.
All proteins were expressed in insect cells using standard procedures. Genes were codon-optimised in all cases (GeneArt). Single protein constructs were cloned in pFastBac vectors (Invitrogen), whereas multi-protein complexes were cloned using the MultiBac system ([Fitzgerald et al, 2006]). The Mis16 protein carried a TEV protease-cleavable double-Strep-Tactin tag at the N terminus for purification purposes. All clones were sequence verified. Baculoviruses were generated and amplified using Sf21 cells, infected in Hi5 cells, and then further incubated at 27°C for 48 h. Harvested cells were lysed by sonication in buffer A containing 50 mM Tris–HCl, pH 7.5, 150 mM NaCl, 0.5 mM TCEP, benzonase nuclease (3 units/1 × 10^6 cells), 10% glycerol, and protease inhibitors cocktail set III (Calbiochem). […]
All in vitro pull-down assays were performed using purified proteins or protein complexes. […] Input and pull-down elution samples were analysed by SDS–PAGE.

Molecule	association with Mis16 (Mis16)	interaction with Cnp1–H4 / histone transfer (Cnp1–H4)
B1	Mis19 is associated with Mis16	no histones can be transferred onto Strep-Mis16
B2	–	completely inhibits histone transfer to Mis16
